Target: T1, ^15N-labeled human eIF4E (human, UniProt P06730 1-217)
T1 construct: human eukaryotic translation initiation factor eIF4E, in pET-15b; Uniformly ^15N-labeled; also called cap-free eIF4E; source: overexpressed and purified as described in Volpon et al. (2016)
Test: NMR titration; ^1H–^15N HSQC of ~40 µM ^15N-labeled cap-free eIF4E, unlabeled LRP10A added to ratio 1:4; 20°C, 50 mM sodium phosphate pH 7.3, 100 mM NaCl, 1 mM DTT, 7% D2O
Conditions: both partners purified

T1 sequence (P06730 whole entry): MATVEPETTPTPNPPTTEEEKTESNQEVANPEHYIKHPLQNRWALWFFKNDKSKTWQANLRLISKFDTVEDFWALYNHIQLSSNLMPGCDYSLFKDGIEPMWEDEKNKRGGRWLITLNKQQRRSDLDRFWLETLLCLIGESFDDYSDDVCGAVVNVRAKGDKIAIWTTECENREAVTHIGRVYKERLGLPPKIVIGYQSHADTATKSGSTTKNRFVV

B1: synthetic peptide LRP10A (N-Ac-EGFPIRPHYFWPLLVGRRKEK-NH2) (peptide)
peptide: Ac-EGFPIRPHYFWPLLVGRRKEK-NH2
notes: human LRPPRC, residues 433-453 (helix 10A); source: synthetic peptide, bought: Biomatic Corporation
  binding result: binds
